Holding throughout (assay): cell-based or functional assay
In assay [1] the target is proteasome β5 subunit (chymotrypsin-like site) in human cells and cell extracts (human) (UniProt P28074).
Assay [2] addresses proteasome β2 subunit (trypsin-like site) in human cells and cell extracts (human) (UniProt Q99436).
In assay [3] the target is caspase-like site (β1 subunit) of 26S proteasomes purified from rabbit muscle (rabbit).

Chain of proteasome β2 subunit (trypsin-like site) in human cells and cell extracts (human) (Q99436 44-277): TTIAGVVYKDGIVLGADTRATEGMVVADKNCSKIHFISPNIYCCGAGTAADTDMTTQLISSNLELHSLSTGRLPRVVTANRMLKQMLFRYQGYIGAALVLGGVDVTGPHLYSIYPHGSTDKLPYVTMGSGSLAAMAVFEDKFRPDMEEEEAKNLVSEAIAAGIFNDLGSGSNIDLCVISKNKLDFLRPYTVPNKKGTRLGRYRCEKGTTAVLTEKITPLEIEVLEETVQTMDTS
Chain of proteasome β5 subunit (chymotrypsin-like site) in human cells and cell extracts (human) (P28074 60-263): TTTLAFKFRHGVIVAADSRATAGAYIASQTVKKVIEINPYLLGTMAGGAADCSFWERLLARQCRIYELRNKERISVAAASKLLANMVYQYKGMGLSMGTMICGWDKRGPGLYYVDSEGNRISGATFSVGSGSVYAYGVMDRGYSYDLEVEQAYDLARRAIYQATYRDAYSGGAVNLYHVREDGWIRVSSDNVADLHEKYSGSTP

In assay [1], carfilzomib (peptide) returned an Inhibition of active sites (% control): Chymotrypsin-like sites, 1 h; KMS-12-BM, 11 nM carfilzomib of 75%; an Inhibition of active sites (% control): Chymotrypsin-like sites, 1 h; KMS-12-BM, 33 nM carfilzomib of 90%; an Inhibition of active sites (% control): Chymotrypsin-like sites, 1 h; KMS-12-BM, 100 nM carfilzomib of 95%; an Inhibition of active sites (% control): Chymotrypsin-like sites, 1 h; KMS-12-BM, 300 nM carfilzomib of 97%. Further, in assay [1], the Inhibition of active sites (% control): Chymotrypsin-like sites, 1 h; KMS-12-BM, 900 nM carfilzomib amounted to 98%; the Inhibition of active sites (% control): Chymotrypsin-like sites, 1 h; NCI-H929, 3.7 nM carfilzomib was 14%; the Inhibition of active sites (% control): Chymotrypsin-like sites, 1 h; NCI-H929, 11 nM carfilzomib came to 39%; the Inhibition of active sites (% control): Chymotrypsin-like sites, 1 h; NCI-H929, 33 nM carfilzomib was 75%. In addition, in assay [1], the Inhibition of active sites (% control): Chymotrypsin-like sites, 6 h -NC-022; KMS-12-BM, 11 nM carfilzomib was determined as 67%; the Inhibition of active sites (% control): Chymotrypsin-like sites, 6 h -NC-022; KMS-12-BM, 33 nM carfilzomib turned out to be 97%; the Inhibition of active sites (% control): Chymotrypsin-like sites, 6 h -NC-022; KMS-12-BM, 100 nM carfilzomib is 97%; the Inhibition of active sites (% control): Chymotrypsin-like sites, 6 h -NC-022; KMS-12-BM, 300 nM carfilzomib worked out at 97%. In assay [1], the Inhibition of active sites (% control): Chymotrypsin-like sites, 6 h -NC-022; KMS-12-BM, 900 nM carfilzomib was 97%; the Inhibition of active sites (% control): Chymotrypsin-like sites, 6 h -NC-022; NCI-H929, 3.7 nM carfilzomib came out at 65.5%; the Inhibition of active sites (% control): Chymotrypsin-like sites, 6 h -NC-022; NCI-H929, 11 nM carfilzomib was found to be 89%; the Inhibition of active sites (% control): Chymotrypsin-like sites, 6 h -NC-022; NCI-H929, 33 nM carfilzomib was determined as 95%. Besides, in assay [2], the Inhibition of active sites (% control): Trypsin-like sites, 1 h; KMS-12-BM, 11 nM carfilzomib is -3%; the Inhibition of active sites (% control): Trypsin-like sites, 1 h; KMS-12-BM, 33 nM carfilzomib was determined as 0%; the Inhibition of active sites (% control): Trypsin-like sites, 1 h; KMS-12-BM, 100 nM carfilzomib is 18%; the Inhibition of active sites (% control): Trypsin-like sites, 1 h; KMS-12-BM, 300 nM carfilzomib came to 49%. Besides, in assay [2], the Inhibition of active sites (% control): Trypsin-like sites, 1 h; KMS-12-BM, 900 nM carfilzomib is 75%; the Inhibition of active sites (% control): Trypsin-like sites, 1 h; NCI-H929, 3.7 nM carfilzomib is -7%; the Inhibition of active sites (% control): Trypsin-like sites, 1 h; NCI-H929, 11 nM carfilzomib stood at 0%; the Inhibition of active sites (% control): Trypsin-like sites, 1 h; NCI-H929, 33 nM carfilzomib came out at 17%. In assay [2], the Inhibition of active sites (% control): Trypsin-like sites, 6 h -NC-022; KMS-12-BM, 11 nM carfilzomib came to 5%; the Inhibition of active sites (% control): Trypsin-like sites, 6 h -NC-022; KMS-12-BM, 33 nM carfilzomib is 45%; the Inhibition of active sites (% control): Trypsin-like sites, 6 h -NC-022; KMS-12-BM, 100 nM carfilzomib is 62%; the Inhibition of active sites (% control): Trypsin-like sites, 6 h -NC-022; KMS-12-BM, 300 nM carfilzomib came out at 69%. In assay [2], the Inhibition of active sites (% control): Trypsin-like sites, 6 h -NC-022; KMS-12-BM, 900 nM carfilzomib was 72%; the Inhibition of active sites (% control): Trypsin-like sites, 6 h -NC-022; NCI-H929, 3.7 nM carfilzomib turned out to be 3%; the Inhibition of active sites (% control): Trypsin-like sites, 6 h -NC-022; NCI-H929, 11 nM carfilzomib is 39%; the Inhibition of active sites (% control): Trypsin-like sites, 6 h -NC-022; NCI-H929, 33 nM carfilzomib came to 46%.
“N3-Phe-Ala(4-pyridine)-Leu-Phe(4-CH2NH2-TFA)-VS (50) (peptide)” had an IC50 (µM) for sites: Casp-L in assay [3] of 30 µM.

Values taken from patent publication US20130102527A1.
